# B1: C-terminal domain (CTD) of DNAJB6, WT sequence (residues 186–242 plus a starting Met) (domain or fragment)
# chain: MGNFKSISTSTKMVNGRKITTKRIVENGQERVEVEEDGQLKSLTINGKEQLLRLDNK
# notes: starting Met added before residue 186; numbers count on: full-length DNAJB6; also called WT CTD
# Assays:
# [1] = biological target: Aβ42 fibrils (amyloid-β peptide Aβ(M1-42), fibrillar form)
# [2] = biological target: Aβ42 fibrils (amyloid-β peptide Aβ(M1-42), fibrillar form); test: SPR; Aβ42 fibrils immobilised, construct injected (CTD at 2, 5 and 10 μM); 20 mM sodium phosphate, 0.2 mM EDTA, pH 8.0, 0.005% Tween-20
# [3] = biological target: S100G-CTDβ1–2 (β-strands 1 and 2 of the DNAJB6 CTD, residues 187–212, grafted between the two EF-hands of human S100G) (UniProt O75190); test: cross-linking; 10 μM construct, BS3 amine-reactive crosslinker, 20 mM sodium phosphate, 0.2 mM EDTA (pH 8.0), SDS-PAGE with integration of band intensities and LC-MS/MS of excised bands; dimer to monomers; KD are lower bounds
# [4] = biological target: S100G-CTDβ1–2STA (ST/A-substituted variant of S100G-CTDβ1–2) (UniProt O75190); test: as above
# [5] = biological target: S100G-CTDβ1–4 (four β-strands of the DNAJB6 CTD, residues 187–231, grafted between the two EF-hands of human S100G) (UniProt O75190); test: as above
# [6] = biological target: S100G-CTDβ1–4STA (ST/A-substituted variant of S100G-CTDβ1–4) (UniProt O75190); test: as above
# [7] = biological target: the molecule itself; test: native MS; equimolar mixture of CTD and CTD STA ionised from 200 mM ammonium acetate, pH 6.8, source temperature 25 °C, gentle ionisation; also nonmixed samples (Fig. S3)
# [8] = biological target: the molecule itself; test: cross-linking; 10 μM construct, BS3 amine-reactive crosslinker, 20 mM sodium phosphate, 0.2 mM EDTA (pH 8.0), SDS-PAGE with integration of band intensities and LC-MS/MS of excised bands; dimer to monomers; KD are lower bounds
# [9] = biological target: the molecule itself; test: cross-linking; 10 μM construct, BS3 amine-reactive crosslinker, 20 mM sodium phosphate, 0.2 mM EDTA (pH 8.0), SDS-PAGE with integration of band intensities and LC-MS/MS of excised bands; tetramer to dimers; KD is a lower bound
# [10] = biological target: B1; test: native MS; equimolar mixture of CTD and CTD STA ionised from 200 mM ammonium acetate, pH 6.8, source temperature 25 °C, gentle ionisation; also nonmixed samples (Fig. S3); conditions: both partners purified
molecule,measurement,setting,value
"C-terminal domain (CTD) of DNAJB6, WT sequence (residues 186–242 plus a starting Met) (from UniProt O75190-2 186-241) (domain or fragment)","ThT fluorescence, reaction half time t1/2 of the aggregation of 3 μM Aβ42, CTD:Aβ42 M ratios from 0.05:1 to 1:1",[1],10 fold
same,Ka,[2],100000 M⁻¹
"S100G-CTDβ1–2 (β-strands 1 and 2 of the DNAJB6 CTD, residues 187–212, grafted between the two EF-hands of human S100G) (from UniProt O75190-2 187-212)",Ka,[2],300000 M⁻¹
same,Kd,[3],> 60 µM
S100G-CTDβ1–2STA (ST/A-substituted variant of S100G-CTDβ1–2) (from UniProt O75190-2 187-212),Kd,[4],> 1000 µM
"S100G-CTDβ1–4 (four β-strands of the DNAJB6 CTD, residues 187–231, grafted between the two EF-hands of human S100G) (from UniProt O75190-2 187-231)",Ka,[2],1e+07 M⁻¹
same,Kd,[5],> 500 µM
S100G-CTDβ1–4STA (ST/A-substituted variant of S100G-CTDβ1–4) (from UniProt O75190-2 187-231),Kd,[6],> 1000 µM
B1,stoichiometry N,[7],2
same,Kd,[8],≥ 30 µM
same,Kd,[9],≥ 2 µM
same,stoichiometry N,[9],4
"CTD STA (CTD with S190A + S192A + T193A + S194A + T195A in β1) (domain or fragment, starting Met added before residue 186; numbers count on: full-length DNAJB6; also called S/T-A-substituted variant) MGNFKAIAAAAKMVNGRKITTKRIVENGQERVEVEEDGQLKSLTINGKEQLLRLDNK",binding result,[10],binds
same,stoichiometry N,[7],2
same,Kd,[8],≥ 600 µM
